Test results reported in the supplement of paper PMC12855868.

B1: library; numbered along this chain (parent)
chain: MAAAGGARLLRAASAVLGGPAGRWLHHAGSRAGSSGLLRNRGPGGSAEASRSLSVSARARSSSEDKITVHFINRDGETLTTKGKVGDSLLDVVVENNLDIDGFGACEGTLACSTCHLIFEDHIYEKLDAITDEENDMLDLAYGLTDRSRLGCQICLTKSMDNMTVRVPETVADARQSIDVGKTS

Variants of: B1
Experiment: scaled log2 fold change in cell abundance, elesclomol vs control (0 = silent mean, 1 = nonsense mean) (scaled log2 ratio); higher = higher viability under elesclomol (loss of FDX1 cuproptosis function)
Conditions: glucose 10 mM
[1] = with ABC1 FDX1 KO, elesclomol 5 nM, 14 days
[2] = with HEK293T FDX1 KO, elesclomol 40 nM, 11 days
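Note: variant abundance is its share of total variant reads in each endpoint sample, from next-generation sequencing of the integrated ORF PCR-amplified out of genomic DNA.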

| Variant | scaled log2 fold change [1] | scaled log2 fold change [2] |
| --- | --- | --- |
| MAAAGGARLLRAASAVLGGPAGRWLHHAGSRAGSSGLLRNRGPGGSAEASRSLSVSARARSSSEDKITVHFINRDGETLTTKGKVGDSLLDVVVENNLDIDGFGACEGTLACSTCHLIFEDHIYEKLDAITDEENDMLDLAYGLTDRSRLGCQICLTKSMDNMTVRVPETVADARQSIDVFKTS | 0.316 | 0.167 |
| MAAAGGARLLRAASAVLGGPAGRWLHHAGSRAGSSGLLRNRGPGGSAEASRSLSVSARARSSSEDKITVHFINRDGETLTTKGKVGDSLLDVVVENNLDIDGFGACEGTLACSTCHLIFEDHIYEKLDAITDEENDMLDLAYGLTDRSRLGCQICLTKSMDNMTVRVPETVADARQSIDVHKTS | -0.157 | 0.112 |
| MAAAGGARLLRAASAVLGGPAGRWLHHAGSRAGSSGLLRNRGPGGSAEASRSLSVSARARSSSEDKITVHFINRDGETLTTKGKVGDSLLDVVVENNLDIDGFGACEGTLACSTCHLIFEDHIYEKLDAITDEENDMLDLAYGLTDRSRLGCQICLTKSMDNMTVRVPETVADARQSIDVNKTS | 0.125 | – |
| MAAAGGARLLRAASAVLGGPAGRWLHHAGSRAGSSGLLRNRGPGGSAEASRSLSVSARARSSSEDKITVHFINRDGETLTTKGKVGDSLLDVVVENNLDIDGFGACEGTLACSTCHLIFEDHIYEKLDAITDEENDMLDLAYGLTDRSRLGCQICLTKSMDNMTVRVPETVADARQSIDVIKTS | 0.268 | 0.0446 |
| MAAAGGARLLRAASAVLGGPAGRWLHHAGSRAGSSGLLRNRGPGGSAEASRSLSVSARARSSSEDKITVHFINRDGETLTTKGKVGDSLLDVVVENNLDIDGFGACEGTLACSTCHLIFEDHIYEKLDAITDEENDMLDLAYGLTDRSRLGCQICLTKSMDNMTVRVPETVADARQSIDVEKTS | -0.223 | -0.4 |
| MAAAGGARLLRAASAVLGGPAGRWLHHAGSRAGSSGLLRNRGPGGSAEASRSLSVSARARSSSEDKITVHFINRDGETLTTKGKVGDSLLDVVVENNLDIDGFGACEGTLACSTCHLIFEDHIYEKLDAITDEENDMLDLAYGLTDRSRLGCQICLTKSMDNMTVRVPETVADARQSIDVPKTS | -0.164 | -0.548 |
| MAAAGGARLLRAASAVLGGPAGRWLHHAGSRAGSSGLLRNRGPGGSAEASRSLSVSARARSSSEDKITVHFINRDGETLTTKGKVGDSLLDVVVENNLDIDGFGACEGTLACSTCHLIFEDHIYEKLDAITDEENDMLDLAYGLTDRSRLGCQICLTKSMDNMTVRVPETVADARQSIDVLKTS | 0.185 | – |
| MAAAGGARLLRAASAVLGGPAGRWLHHAGSRAGSSGLLRNRGPGGSAEASRSLSVSARARSSSEDKITVHFINRDGETLTTKGKVGDSLLDVVVENNLDIDGFGACEGTLACSTCHLIFEDHIYEKLDAITDEENDMLDLAYGLTDRSRLGCQICLTKSMDNMTVRVPETVADARQSIDVKKTS | 0.227 | -0.659 |
| MAAAGGARLLRAASAVLGGPAGRWLHHAGSRAGSSGLLRNRGPGGSAEASRSLSVSARARSSSEDKITVHFINRDGETLTTKGKVGDSLLDVVVENNLDIDGFGACEGTLACSTCHLIFEDHIYEKLDAITDEENDMLDLAYGLTDRSRLGCQICLTKSMDNMTVRVPETVADARQSIDVMKTS | -1.35 | 0.389 |
